Measurements taken from patent publication CN105695419A.

Biological target: His标签蛋白
Assay: ELISA titre of mouse ascites

B1: 杂交瘤细胞株4C9(CCTCC NO. C2015198)分泌的抗His标签蛋白单克隆抗体 (antibody, V domains shown)
VH: EVQLQESGAELMKPGASVKLSCKATGYTFTGYWIEWVKQRPGHGLEWIGEILPGSGSINHNENFKDKATFTADTSSNTAYMQLNSLTTEDSAVYFCAGGGGYWGQGTTLTVSS
VL: EIVITQTPLSLPVSLGDQASISCRSSRSIVHSNGNTYLEWYLQKPGQSPKLLIYKVSNRVSGVPDRFSGSGSGTDFTLKISRVEAEDLGVYYCFQGSHVPLTFGAGTKLELKR
ELISA效价: 1.28e+06
